# Results from patent publication US20250270254A1, “PROBES AND KITS FOR THE EARLY DIAGNOSIS OF DIFUSE LARGE B-CELL LYMPHOMA” (BEIJING BOE TECHNOLOGY DEVELOPMENT CO., LTD., priority 2022, published 2025).
# Where a SMILES comes first, the peptide text is derived from it.
# B1: BtaP3 (peptide)
# peptide: ICWRRGI
# notes: Designed synthetic polypeptide probe; spotted on a bare gold SPRi chip; also called Ile-Cys-Trp-Arg-Arg-Gly-Ile
# B2: BtaP2 (peptide)
# peptide: ICWRRF
# notes: Designed synthetic polypeptide probe; spotted on a bare gold SPRi chip; also called Ile-Cys-Trp-Arg-Arg-Phe
# B3: BtaPL1 (peptide)
# peptide: ICWRRRRRF
# notes: Designed synthetic polypeptide probe; spotted on a bare gold SPRi chip; also called Ile-Cys-Trp-Arg5-Phe
# B4: BtaE2 (peptide)
# peptide: ICWGGRRRGGGF
# notes: Designed synthetic polypeptide probe; spotted on a bare gold SPRi chip; also called Ile-Cys-Trp-Gly2Arg3Gly3-Phe
# B5: BtaP1 (peptide)
# peptide: HCWRRF
# notes: Designed synthetic polypeptide probe; spotted on a bare gold SPRi chip; also called His-Cys-Trp-Arg-Arg-Phe
# B6: BtaPL5 (peptide)
# peptide: ICWRRRRRRRRRRRRRF
# notes: Designed synthetic polypeptide probe; spotted on a bare gold SPRi chip; also called Ile-Cys-Trp-Arg13-Phe
# B7: BtaPL4 (peptide)
# peptide: ICWRRRRRRRRRRRF
# notes: Designed synthetic polypeptide probe; spotted on a bare gold SPRi chip; also called Ile-Cys-Trp-Arg11-Phe
# B8: BtaE3 (peptide)
# peptide: ICWGRRRGGF
# notes: Designed synthetic polypeptide probe; spotted on a bare gold SPRi chip; also called Ile-Cys-Trp-Gly-Arg3-Gly2-Phe
# B9: Bta893 (peptide)
# peptide: HCWRGF
# notes: Synthetic polypeptide probe from the Mix-Split library; spotted on a bare gold SPRi chip; also called His-Cys-Trp-Arg-Gly-Phe
# B10: BtaPL2 (peptide)
# peptide: ICWRRRRRRRF
# notes: Designed synthetic polypeptide probe; spotted on a bare gold SPRi chip; also called Ile-Cys-Trp-Arg7-Phe
# B11: BtaE1 (peptide)
# peptide: ICWRRRGGGF
# notes: Designed synthetic polypeptide probe; spotted on a bare gold SPRi chip; also called Ile-Cys-Trp-Arg3Gly3-Phe
# B12: BtaPL3 (peptide)
# peptide: ICWRRRRRRRRRF
# notes: Designed synthetic polypeptide probe; spotted on a bare gold SPRi chip; also called Ile-Cys-Trp-Arg9-Phe
# B13: Bta1335 (peptide)
# peptide: CCHRGF
# notes: Synthetic polypeptide probe from the Mix-Split library; spotted on a bare gold SPRi chip; also called Cys-Cys-His-Arg-Gly-Phe
# B14: Bta3097 (peptide)
# peptide: GCYRRF
# notes: Synthetic polypeptide probe from the Mix-Split library; spotted on a bare gold SPRi chip; also called Gly-Cys-Tyr-Arg-Arg-Phe
# Target: CD138 (UniProt P18827 23-251)
# Experiment: SPR imaging (SPRi); probe spotted on bare gold chip, CD138 flowed at 50-800 nM
# Settings: not given
# Chain of CD138 (P18827 23-251): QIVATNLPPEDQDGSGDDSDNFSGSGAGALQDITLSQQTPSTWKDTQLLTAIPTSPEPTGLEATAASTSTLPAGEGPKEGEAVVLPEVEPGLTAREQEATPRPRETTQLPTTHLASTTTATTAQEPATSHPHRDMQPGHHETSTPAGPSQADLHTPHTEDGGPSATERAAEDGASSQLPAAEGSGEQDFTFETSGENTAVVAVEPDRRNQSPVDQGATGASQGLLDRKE
row,Kd [nM],Molecule
1,0.977,B1
2,1.02,B2
3,0.856,B3
4,0.309,B4
5,1.15,B5
6,85.7,B6
7,9.21,B7
8,0.121,B8
9,1.29,B9
10,0.731,B10
11,0.702,B11
12,6.56,B12
13,2.57,B13
14,5.26,B14

# Test system: diffuse large B-cell lymphoma cells
# Experiment: Analysis of probe specificity: probe-coupled magnetic bead capture from mixed cells, flow cytometry
# Type: cell-based
# Settings: positive cells (diffuse large B-cell lymphoma cells) mixed with negative cells (HELA cells) 1:10; proportion of positive cells among captured cells by flow cytometry
# Description: The diagnostic specificity of the small molecular probe was detected using flow cytometry and the specific steps were as follows: • 1) Preparation of gradient concentration of cell samples: positive cells (diffuse large B-cell lymphoma cells) were mixed with negative cells (HELA cells) at a ratio of 1:10 and repeatedly pipetted to mix well; • 2) Probe-bead coupling: the reaction was performed in PBS buffer, with a bead-coupling concentration of 1 mg/mL, and 1 mg of beads corresponded to 10 μg of the BtaE3 probe, with gentle shaking for 1 h at room temperature. This was followed by washing five times with PBS buffer containing 0.01% BSA, standing for 30 s each time, and finally resuspending in PBS buffer at a concentration of 15 mg/mL; • 3) Positive cell enrichment: cells were thoroughly mixed with the magnetic bead suspension, with shaking by hand for 30 min at 4° C. in an ice box, followed by washing three times with PBS (containing 0.1% BSA and 2 mM EDTA) buffer and resuspending in PBS; • 4) Specificity analysis: The captured cells were separated using a magnetic field, and the protein expression profile was quantified by flow cytometry to calculate the proportion of positive cells.
row,Molecule,specificity for detection [%]
1,"CC[C@H](C)[C@H](N)C(=O)N[C@@H](CS)C(=O)N[C@@H](Cc1c[nH]c2ccccc12)C(=O)NCC(=O)N[C@@H](CCCNC(=N)N)C(=O)N[C@@H](CCCNC(=N)N)C(=O)N[C@@H](CCCNC(=N)N)C(=O)NCC(=O)NCC(=O)N[C@@H](Cc1ccccc1)C(=O)O [BtaE3, Ile-Cys-Trp-Gly-Arg3-Gly2-Phe] (H-ICWGRRRGGF-OH; N-terminus and C-terminus assumed)",> 90
